Test results: PMC3096069 (Journal of molecular biology, 2011)

B1: Pf1 200-241 (human Pf1 residues 200-241, wild type) (domain or fragment, UniProt Q96QT6 200-241, looked up)
chain: DYVQPQLRRPFELLIAAAMERNPTQFQLPNELTCTTALPGSS
B2: Pf1 200-241 Leu212Ala (domain or fragment, human, UniProt Q96QT6 200-241, looked up)
chain: DYVQPQLRRPFEALIAAAMERNPTQFQLPNELTCTTALPGSS
B3: Pf1 200-241 Asn221Glu (domain or fragment, human, UniProt Q96QT6 200-241, looked up)
chain: DYVQPQLRRPFELLIAAAMEREPTQFQLPNELTCTTALPGSS
B4: Pf1 200-241 Phe225Ala (domain or fragment, human, UniProt Q96QT6 200-241, looked up)
chain: DYVQPQLRRPFELLIAAAMERNPTQAQLPNELTCTTALPGSS
B5: mSin3A PAH2 (mammalian Sin3A PAH2 domain, residues 295-385) (domain or fragment, UniProt Q60520 295-385, looked up)
chain: SLQNNQPVEFNHAINYVNKIKNRFQGQPDIYKAFLEILHTYQKEQRNAKEAGGNYTPALTEQEVYAQVARLFKNQEDLLSEFGQFLPDANS

Columns and labels:
[1] = target: Pf1 200-241 (human Pf1 residues 200-241, wild type) (human) (UniProt Q96QT6); experiment: ITC
[2] = target: mSin3A PAH2 (Mus musculus) (UniProt Q60520); settings: cited from earlier work
[3] = target: MRG15 MRG (human MRG15 MRG domain, residues 155-323) (human, UniProt Q9UBU8-2 155-323); experiment: ITC
[4] = target: B5; experiment: ITC
[5] = target: B1; experiment: ITC
[6] = target: B2; experiment: ITC
[7] = target: B3; experiment: ITC
[8] = target: B4; experiment: ITC

MRG15 MRG (human MRG15 MRG domain, residues 155-323), sequence (Q9UBU8 194-362): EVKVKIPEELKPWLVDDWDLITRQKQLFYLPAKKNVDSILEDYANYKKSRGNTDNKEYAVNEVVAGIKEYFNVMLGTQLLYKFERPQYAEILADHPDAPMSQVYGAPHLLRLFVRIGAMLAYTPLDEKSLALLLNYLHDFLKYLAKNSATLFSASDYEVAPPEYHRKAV
mSin3A PAH2 (Mus musculus), sequence (Q60520 297-386): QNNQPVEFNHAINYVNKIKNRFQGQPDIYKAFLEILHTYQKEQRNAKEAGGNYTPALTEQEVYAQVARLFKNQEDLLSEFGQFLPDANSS

mSin3B PAH2 (mammalian Sin3B PAH2 domain) (domain or fragment)
Kd [1]: 2930 nM | dH [1]: -9.64 kcal/mol | stoichiometry N [1]: 1.02

Mad1/Mxd1 (from UniProt Q05195)
Kd [2]: 50 nM

B1
Kd [3]: 15 ± 3 nM | dH [3]: -13.1 ± 0.4 kcal/mol | stoichiometry N [3]: 0.82 ± 0.08 | Kd [4]: 2150 ± 450 nM

B2
Kd [4]: 2660 ± 460 nM

B3
Kd [4]: 630 ± 50 nM

B4
Kd [4]: 1650 nM

B5
dH [5]: -6.58 ± 0.48 kcal/mol | stoichiometry N [5]: 0.99 ± 0.05 | dH [6]: -4.31 ± 0.49 kcal/mol | stoichiometry N [6]: 1 ± 0.11 | dH [7]: -7.67 ± 0.43 kcal/mol | stoichiometry N [7]: 1.16 ± 0.08 | dH [8]: -4.97 kcal/mol | stoichiometry N [8]: 1.12
